Experimental data published in patent US20100129344A1, “MEDICAL USES AND THERAPIES BASED UPON THE ACTION OF AZUROCIDIN ON IGFBP-1” (priority 2005, published 2010).

T1: IGFBP-1 (Homo sapiens, UniProt P08833)
T1 construct: purchased Kabi Pharmacia (Sweden), donated
T1 sequence (P08833 26-259): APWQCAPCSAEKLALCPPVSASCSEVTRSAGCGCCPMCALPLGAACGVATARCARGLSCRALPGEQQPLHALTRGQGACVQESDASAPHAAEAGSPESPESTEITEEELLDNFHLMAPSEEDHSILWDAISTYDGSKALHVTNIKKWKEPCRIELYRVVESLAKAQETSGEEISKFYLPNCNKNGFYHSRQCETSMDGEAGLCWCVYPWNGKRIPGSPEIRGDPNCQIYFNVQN


Legend:
IGFBP-1 [1] = target: T1, IGFBP-1; assay: Azurocidin-dependent IGFBP-1 protease activity (SDS-PAGE, ECL or silver staining); type: biochemical; settings: for effect on IGFBP-1 (proteolysis): commercial recombinant protein from mouse myeloma cells
Description: Recombinant phosphorylated IGFBP-1 was used as substrate and incubations were carried out under neutral conditions for 2 h at 37 C. IGFBP-1 fragments were separated on SDS-PAGE, and detected by ECL as described in the methods. Panel A: Incubations with 0.25 μL eluate (HE) from heparin affinity chromatography (50 μl urine equiv.) in the presence and absence of anti-azurocidin antibody; and 1 μl HE of the loading material (L), and the flow through after affinity chromatography on protein G columns without (G) and with bound anti-chymase (C) or anti-azurocidin (A) antibodies. Panel B: Incubations in the presence and absence of 25 ng anti-azurocidin antibody with increasing volumes of white cell extract from the individual with a specific IGFBP-1 protease in urine compared to the white cell extract pooled from 6 healthy subjects;
Recombinant IGFBP-1 was incubated with the eluate from heparin affinity chromatography (HE) with a ratio of azurocidin:BP-1 of 1:3,500. After the times indicated, proteins were detected by silver staining after SDS-PAGE;
Gels were fixed, dried and analysed with the Fuji PhosphoImage program (Fuji Co., Stockholm, Sweden). Biotinylated IGFBP-1 and its fragments were separated on 14% SDS-PAGE under reducing conditions, transferred to PVDF (Biorad, Sundbyberg, Sweden), incubated with neutravidin-horseradish peroxidase (Pierce Biotechnology Inc, Rochester, Ill.) and detected by ECL (Amersham Biosciences, Uppsala, Sweden). Silver staining of proteins and fragments was performed after denaturing 12% PAGE under reducing conditions (SilverQuest and NuPAGE, Invitrogen, Stockholm, Sweden).
Heparin affinity chromatography was carried out in batches using heparin-agarose gel (Pharmacia). Urine was diluted 1:5 in 10 mM sodium phosphate, with 0.25 M NaCl buffer, pH 7 and incubated with gel for 30 min at 4 C. The gel was transferred to a column and washed with 10 times the gel volume of buffer. Heparin binding proteins were eluted in loading buffer containing 2M NaCl and the eluate was desalted, concentrated using a 10 kDa spin column and stored at −80 C. Concentrated material derived from 700 ml urine were applied to C4 reverse-phase HPLC, in 0.1% TFA on an acetonitrile gradient of 0-100%. Immunoaffinity chromatography was performed using monoclonal anti-azurocidin antibody attached to protein G Sepharose (Sigma-Aldrich, Sweden). In brief, antibody bound gel was incubated with the eluate from heparin affinity chromatography for 2 h at 22 C, and transferred to a Bio-Spin chromatography column (BioRad). The flow-through was collected for analysis of protease activity. As controls, an additional column was prepared with a monoclonal antibody against human mast cell chymase and a second column with no bound antibody.

IGFBP-1 [2] = target: T1, IGFBP-1; assay: Sequence analysis of IGFBP-1 fragments after azurocidin-dependent proteolysis; type: biochemical
Description: A: Recombinant npIGFBP-1 was incubated without (−) and with (+) 0.25 μl partially purified azurocidin in a protease:substrate ratio of 1:3 500 for 2 h at 37 C. The fragments were purified on HPLC. N-, purified fragments with the N-terminal sequence of IGFBP-1, APWQCAP-, c-, small fragment with the sequence STYDGSK-, C-, purified C-terminal fragments with the sequence TNIKKWK-. Samples were separated on 12% SDS-PAGE and visualised by silver staining. Molecular mass markers are indicated by the arrows. B: Summary of sequence analysis of IGFBP-1 fragments after azurocidin-dependent proteolysis. N-terminal sequence analysis was performed on fragments purified by HPLC on 4 separate occasions. C-terminal sequence analysis was perform on one HPLC run. Cleavage sites are indicated by the arrows. a, the primary cleavage site present in 4 runs. b, a secondary cleavage site, present in 3 runs. c, cleavage sites, each identified in only one of the four runs. […]
The primary cleavage site in IGFBP-1 was determined by HPLC-separation of phosphorylated IGFBP-1 after incubation with heparin eluate, and HPLC purification of fragments, followed by N- and C-terminal sequencing. […] N- and C-terminal sequencer degradations were performed on HPLC purified proteins in ABI instruments as described (refs 2 and 3), From this analysis, the quantity of azurocidin quantity in urine was estimated to be 25 pmol/100 ml.

Row | IGFBP-1 proteolytic activity after exposure to 0.1% TFA (IGFBP-1 [1]; 0.1% TFA in HPLC buffer, lyophilization, reconstitution in assay buffer) | IGFBP-1 proteolytic activity after reduction with dithiothreitol (IGFBP-1 [1]; data not shown) | secondary cleavage site in IGFBP-1 (IGFBP-1 [2]; present in 3 of the HPLC runs) | primary cleavage site in IGFBP-1 (IGFBP-1 [2]; present in all 4 HPLC runs, confirmed by C-terminal sequence analysis) | effect on IGFBP-1 (proteolysis) (IGFBP-1 [1]; data not shown) | effect on IGFBP-1 (proteolysis) (IGFBP-1 [1]; data not shown, listed as recombinant azurocidin) | Molecule | IGFBP-1 protease activity (IGFBP-1 [1]; after heparin affinity chromatography of urine)
1 | abolished | loss of activity | Val^141-Thr^142 | Ile^130-Ser^131 |  |  | partially purified azurocidin: desalted eluate of heparin affinity chromatography of human urine, containing azurocidin, myeloperoxidase and lactoferrin (protein) IVGGRKARPRQFPFLASIQNQGRHFCGGALIHARFVMTAASCFQSQNPGVSTVVLGAYDLRRRERQSRQTFSISSMSENGYDPQQNLNDLMLLQLDREANLTSSVTILPLPLQNATVEAGTRCQVAGWGSQRSGGRLSRFPRFVNVTVTPEDQCRPNNVCTGVLTRRGGICNGDGGTPLVCEGLAHGVASFSLGPCGRGPDFFTRVALFRDWIDGVLNNPGP | present
2 |  |  |  |  | no effect | lacked activity | Recombinant human azurocidin^27-250: recombinant azurocidin 27-250 purified from murine myeloma cells, R&D Systems (protein) IVGGRKARPRQFPFLASIQNQGRHFCGGALIHARFVMTAASCFQSQNPGVSTVVLGAYDLRRRERQSRQTFSISSMSENGYDPQQNLNDLMLLQLDREANLTSSVTILPLPLQNATVEAGTRCQVAGWGSQRSGGRLSRFPRFVNVTVTPEDQCRPNNVCTGVLTRRGGICNGDGGTPLVCEGLAHGVASFSLGPCGRGPDFFTRVALFRDWIDGVLNNPGPGP | 
